This assay deals with T1, GST full-length Sp7 (mouse, UniProt Q8VI67 1-428).
T1 construct: Sp7 (Osterix, Osx), mouse cDNA, full length; also called GST-Sp7; Osterix
Put plainly: co-IP; purified GST fusion proteins incubated together, immunoprecipitated with anti-Sp7, anti-Dlx3 or anti-GCN5 antibody and protein G agarose beads, IgG as negative control, detected by Western blotting. The conditions noted are these: both partners purified. On the technique in general: A western blot detects proteins with antibodies after separation by electrophoresis.

T1 sequence (Q8VI67 whole entry): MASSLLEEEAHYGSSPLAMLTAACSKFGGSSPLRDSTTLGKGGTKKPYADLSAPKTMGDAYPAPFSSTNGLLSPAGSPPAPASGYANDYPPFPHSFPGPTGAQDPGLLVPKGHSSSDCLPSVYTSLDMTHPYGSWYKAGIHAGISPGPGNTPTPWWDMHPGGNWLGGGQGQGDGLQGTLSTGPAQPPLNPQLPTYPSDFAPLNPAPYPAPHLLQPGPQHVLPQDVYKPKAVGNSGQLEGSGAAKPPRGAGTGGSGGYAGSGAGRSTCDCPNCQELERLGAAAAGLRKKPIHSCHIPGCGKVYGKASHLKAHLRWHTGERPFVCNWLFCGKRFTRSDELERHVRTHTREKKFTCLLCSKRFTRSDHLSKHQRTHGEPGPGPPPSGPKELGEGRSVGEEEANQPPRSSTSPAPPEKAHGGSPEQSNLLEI

B1: GST full-length Dlx3 (natural protein)
chain: not shown
notes: Dlx3, mouse cDNA, full length; also called GST-Dlx3
For B1, the binding result is “binds”.

For the origin of these results see PMC10543288, “Loss of Bmp2 impairs odontogenesis via dysregulating pAkt/pErk/GCN5/Dlx3/Sp7” (Research Square, 2023).
